Tests used:
[1] = molecular target: Wild type full length LIGHT on HEK293FF cells (alanine scanning control) (UniProt O43557); assay: flow cytometry, HEK293FF, mAb at EC50
[2] = molecular target: Human LIGHT stably expressed on EL4 cells (EL4-LIGHT) (human) (UniProt O43557); assay: flow cytometry, EL4-LIGHT cells
[3] = molecular target: LIGHT without residues 81-84, stably expressed on EL4 cells (EL4-NC-LIGHT); assay: cell-based or functional assay

Human LIGHT stably expressed on EL4 cells (EL4-LIGHT) (human), sequence (O43557 whole entry, the tested form may be a part): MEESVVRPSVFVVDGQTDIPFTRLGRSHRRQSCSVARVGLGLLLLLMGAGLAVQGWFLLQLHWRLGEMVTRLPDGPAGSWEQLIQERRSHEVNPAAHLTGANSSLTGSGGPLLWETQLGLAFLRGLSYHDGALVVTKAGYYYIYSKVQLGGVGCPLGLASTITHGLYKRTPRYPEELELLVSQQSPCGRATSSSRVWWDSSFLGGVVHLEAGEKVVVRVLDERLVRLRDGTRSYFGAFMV

| Binder | % of WT binding [1] | EC50 [2] | IC50, inhibition of IL-8 secretion, HT-29 + EL4-NC-LIGHT cells [3] |
| --- | --- | --- | --- |
| 3B04 chimeric IgG4 mAb (antibody, V domains shown) VH: QVQLQQPGAELVRPGASVTLSCKASGYTFTDYEMHWVKQTPVHGLEWIGEIDPETGDTAYSQKFKGKATLTADKSSSTAYMEFRSLTSEDSAVYYCSRETDYFFDYWGQGTTLTVSS VL: DIQMTQTPASLSASVGETVTITCGASENIYGALNWYQRKQGKSPQLLIYGATNLADGMSSRFSGSGSGRQYSLKISSLHPDDFATYYCQNVLTTPWTFGGGTKLEIK | 100% | – | – |
| 3A07 chimeric IgG4 mAb (antibody, V domains shown) VH: QVQLQQSGAELVRPGAPVTLSCKASDYTFTDSEIHWVKQTPVHGLEWIGEIDPETGGTAYNQKFKGKATLTADKSSSTAYMELRSLTSEDSAVYYCSRETDYFFDYWGQGTTLTVSS VL: ENVLTQSPAIMSASPGEKVTMTCSASSSVSYMYWYQQRPGSSPRLLIYDTSNLASGVPVRFSGSGSGTSYSLTISRMEAEDAATYYCQQWSSYPLTFGSGTKLEIK | 100% | – | – |
| 2E08 chimeric IgG4 mAb (antibody, V domains shown) VH: QVQMKESGAELVRPGVSVKISCKGSGYTFTDYAIHWVKQSHAKTLEWIGVISTYYGDASYNQKFKGKATMTVDKSSSTAYMELARLTSDDSAIYYCARSRGEYGNYDAMDYWGQGTSVTVSS VL: DIVLTQSPASLAVSLGQRATISCKASQSVDYDGDSYMNWYQQKPGQPPKLLIYAASNLESGIPARFSGSGSGTDFTLNIHPVEEEDAATYYCQQSNEDPLTFGAGTKLELK | 100% | – | – |
| 2B11 chimeric IgG4 mAb (antibody, V domains shown) VH: EVQLVESGAELVRPGVSVKISCKGSGYTFTDYAIHWVKQSHAKSLEWIGVISTYYGDASYNQKFKGKATMTVDKSSSTAYMELARLTSEDSAIYYCARSRGEYGNYDAMDYWGQGTSVTVSS VL: DIVLTQSPASLAVSLGQRATISCRASESVDSYGNSFMHWYQQKPGQPPKLLIYRASNLESGIPARFSGSGSRTDFTLTINPVEADDVATYYCQQSNEDPYTFGGGTKLEIK | 100% | – | – |
| 3B04_var13 (antibody, V domains shown) VH: QVQLVQSGAEVKKPGASVKVSCKASGYTFTDYEMHWVRQAPGQGLEWIGEIDPETGDTAYSQKFKGRATLTADKSTSTAYMEFSSLRSEDTAVYYCSRETDYFFDYWGQGTLVTVSS VL: DIQMTQSPSSLSASVGDRVTITCRASENIYGALNWYQQKPGKAPKLLIYGATNLAEGVPSRFSGSGSGRDYTLTISSLQPEDFATYYCQNVLTTPWTFGQGTKLEIKR | – | 320 pM | 40 pM |
| 3B04_var16 (antibody, V domains shown) VH: QVQLVQSGAEVKKPGASVKVSCKASGYTFTDYEMHWVRQAPGQGLEWMGEIDPETGDTAYAQKFQGRVTLTADKSTSTAYMELSSLRSEDTAVYYCSRETDYFFDYWGQGTLVTVSS VL: DIQMTQSPSSLSASVGDRVTITCRASENIYGALNWYQQKPGKAPKLLIYGATNLAEGVPSRFSGSGSGRDYTLTISSLQPEDFATYYCQNVLTTPWTFGQGTKLEIKR | – | 240 pM | 100 pM |
| 3B04_var14 (antibody, V domains shown) VH: QVQLVQSGAEVKKPGASVKVSCKASGYTFTDYEMHWVRQAPGQGLEWIGEIDPETGDTAYSQKFQGRVTLTADKSTSTAYMEFSSLRSEDTAVYYCSRETDYFFDYWGQGTLVTVSS VL: DIQMTQSPSSLSASVGDRVTITCRASENIYGALNWYQQKPGKAPKLLIYGATNLAEGVPSRFSGSGSGRDYTLTISSLQPEDFATYYCQNVLTTPWTFGQGTKLEIKR | – | 300 pM | 50 pM |

More lines, now with the values ahead:

| % of WT binding [1] | EC50 [2] | IC50, inhibition of IL-8 secretion, HT-29 + EL4-NC-LIGHT cells [3] | Binder |
| --- | --- | --- | --- |
| 100% | – | – | 3D12 chimeric IgG4 mAb (antibody, V domains shown) VH: QVQLQQPGAELVRPGASVTLSCKASDYTFTDSEIHWVKQTPVHGLEWIGEIDPETGGTAYNQKFKGKATLTADKSSSTAYMELRSLTSEDSAVYYCSRETDYFFDYWGQGTTLTVSS VL: DIQMTQSPASLSASVGETVTITCGASENIYGALNWYQRKQGKSPQLLIYGATNLADGMSSRFSGSGSGRQYSLKISSLHPDDVATYYCQNVLSTPWTFGGGTKLEIK |
| 100% | – | – | 3C10 chimeric IgG4 mAb (antibody, V domains shown) VH: EVQLQQSGAELVRPGASVTLSCKASDYTFTDSEIHWVKQTPVHGLEWIGEIDPETGGTAYNQKFKGKATLTADKSSSTAYMELRSLTSEDSAVYYCSRETDYFFDYWGQGTTLTVSS VL: DVVMTQTPAIMSASPGEKVTMTCSASSSVSYMYWYQQKPGSSPRLLIYDTSNLASGVPVRFSGSGSGTSYSLTISRMEAEDAATYYCQQWSSYPLTFGAGTKLELK |
| – | 220 pM | 380 pM | 3D12_var15 (antibody, V domains shown) VH: QVQLVQSGAEVKKPGASVKVSCKASDYTFTDSEIHWVRQAPGQGLEWMGEIDPETGGTAYAQKFQGRVTLTADKSTSTAYMELSSLRSEDTAVYYCSRETDYFFDYWGQGTLVTVSS VL: DIQMTQSPSSLSASVGDRVTITCRASENIYGALNWYQQKPGKAPKLLIYGATNLAEGVPSRFSGSGSGRDYTLTISSLQPEDVATYYCQNVLSTPWTFGQGTKLEIKR |
| – | 260 pM | 520 pM | 3D12_var16 (antibody, V domains shown) VH: QVQLVQSGAEVKKPGASVKVSCKASGYTFTDSEMHWVRQAPGQGLEWMGEIDPETGGTAYAQKFQGRVTLTADKSTSTAYMELSSLRSEDTAVYYCSRETDYFFDYWGQGTLVTVSS VL: DIQMTQSPSSLSASVGDRVTITCRASENIYGALNWYQQKPGKAPKLLIYGATNLAEGVPSRFSGSGSGRDYTLTISSLQPEDVATYYCQNVLSTPWTFGQGTKLEIKR |
| – | 230 pM | 450 pM | 3D12_var14 (antibody, V domains shown) VH: QVQLVQSGAEVKKPGASVKVSCKASDYTFTDSEIHWVRQAPGQGLEWIGEIDPETGGTAYNQKFQGRVTLTADKSTSTAYMELSSLRSEDTAVYYCSRETDYFFDYWGQGTLVTVSS VL: DIQMTQSPSSLSASVGDRVTITCRASENIYGALNWYQQKPGKAPKLLIYGATNLAEGVPSRFSGSGSGRDYTLTISSLQPEDVATYYCQNVLSTPWTFGQGTKLEIKR |
| – | 240 pM | 450 pM | 3D12_var13 (antibody, V domains shown) VH: QVQLVQSGAEVKKPGASVKVSCKASDYTFTDSEIHWVRQAPGQGLEWIGEIDPETGGTAYNQKFKGRATLTADKSTSTAYMELSSLRSEDTAVYYCSRETDYFFDYWGQGTLVTVSS VL: DIQMTQSPSSLSASVGDRVTITCRASENIYGALNWYQQKPGKAPKLLIYGATNLAEGVPSRFSGSGSGRDYTLTISSLQPEDVATYYCQNVLSTPWTFGQGTKLEIKR |
